# Assay: soluble on expression in E. coli; label from the status in PepcDB or PDB records
row,Sequence,soluble on expression in E. coli
1,MAATVRNLPALFRGLHSKEVCQKMSFSVSAAAKSEILVDTHGSKKVVTLNRPKALNALNLEMVREFYPKLQAWNSSSDVDLVILKGSGDKAFCAGGDVLAVVRSFKDSESGKECTMHKDFFREEYILNHLIGTLNKQYVCLIDGIVMGGGCGLSVNGRFRVATEKTMLAMPETALGLFPDVGGSYFLSRLKGNLGMYLALTGYRLLGADAFHAGLATHFVESSELAKLEKELVNIKDVTENSVDEVIRSFEPKKIPEFSLSKNLAQIRDSFKAKSVEEILASLEKDGSDWAKKQAATLGKMSPTSLKVTHRQITEGSKMSYAKIFTMEYRLTQRFLADKDFHEGCRAILVDKDRKPKWNPATLADVKDSVVDNYFSPLPNNSDLKL,not soluble
2,MSLGKYFGTDGVRGVANTELTPELAFKLGRIGGYVLTKDKENPKVLIGRDTRISGEMLEGALVAGLLSIGVEVMRLGVISTPGVAFLTKAVSASAGVMISASHNPVADNGIKFFGPDGFKLLDEQEKEIETLLDQEDALPRPTGADLGQANDYFEGAQKYLQFLKQTVDEDFTGIHIALDCANGAASSLAPHLFADLEADISTMGTSPNGKNINDGVGSTHPEALAAFVNAKNADIGLAFDGDADRLIAVDEKGNIVDGDKILYICAKYMKEKGLLKQQTLVTTVMSNLGLYKALEALQIDTKQTAVGDRYVMEEMRKGGYNLGGEQSGHIIFLDHITTGDGMLSALQLVNIMKQTGKKLSELAEEWETFPQTLVNIRVTDKHAVTDNEKVPAVIKEVEQEMNGEGRVLVRPSGTEPLVRIMVEAKTEELCDAFVNKIADVVKAELGQEEGHHHHHH,soluble
3,MSLSQQVIIFDTTLRDGEQALQASLSVKEKLQIALALERMGVDVMEVGFPVSSPGDFESVQTIARQVKNSRVCALARCVEKDIDVAAESLKVAEAFRIHTFIATSPMHIATKLRSTLDEVIERAIYMVKRARNYTDDVEFSCEDAGRTPIADLARVVEAAINAGATTINIPDTVGYTMPFEFAGIISGLYERVPNIDKAIISVHTHDDLGLAVGNSLAAVHAGARQVEGAMNGIGERAGNCSLEEVIMAIKVRKDILNVHTAINHQEIWRTSQLVSQICNMPIPANKAIVGSGAFAHSSGIHQDGVLKNRENYEIMTPESIGLNQIQLNLTSRSGRAAVKHRMDEMGYKESEYNLDNLYDAFLKLADKKGQVFDYDLEALAFIGKQQEEPEHFRLDYFSVQSGSNDIATAAVKLACGEEVKAEAANGNGPVDAVYQAINRITEYNVELVKYSLTAKGHGKDALGQVDIVANYNGRRFHGVGLATDIVESSAKAMVHVLNNIWRAAEVEKELQRKAQHNENNKETVEGGSHHHHHH,soluble
4,MAKGTPVTLTTNTEGATIYYTLDGSNPTNKSVRYNGRIVVNENSVIKAIAEKEGLTSSAISTFSFVIVNNEPVRIHDIQGKSHLSPYNGKKVYNVEGVVTALDKNGFYIEDNQPDNDPATSEGMYVYKKDANVAVGDLIQVDGVVEEYVGPGYAERFDTDLTTTEIKASRVVVIAKDQVLPAPIVLGENGVKIPDQIIDNDAFGLFDPNEDAIDFYESVEGMRVTMPTPKIIAPQKNGNLYVTVKNGGNKVVTKYGTPVLDENQLNPERLSVKVPRDYVAKVGDTFTGDITGVVGYDYGSFRIAPITELPSVVDGGFKQIGANIQPRLEHHHHHH,not soluble
5,MDSIIELRHLKTLLALEETGSVSLAAKRVFLTQSALSHQIRMLENHYGTPLFERKSTPLRFTPVGERLLRLAHELIPQVAVAEWDLARITEGEAGELRIAVECHTCFDWLMPAMGEFRPMWPQVELDIVSGFQADPVGLLLQHRADLAIVSEAEKQNGISFQPLFAYEMVGICAPDHPLAAKNVWTAEDFIGETLITYPVPDEMLDLPKKILIPKNINPPRRHSELTIAIIQLVASRRGIAALPYWTVMPYLEKGYVVHRQITADGLQSKLYAAIRTEDTDKSYLNNFCQIIRERGFADLPGLSELEPV,not soluble
6,MGHHHHHHSHMEIPPTNYPASRAALVAQNYINYQQGTPHRVFEVQKVKQASMEDIPGRGHKYHLKFAVEEIIQKQVKVNCTAEVLYPSTGQETAPEVNFTFEGETGKNPDEEDNTFYQRLKSMKEPLEAQNIPDNFGNVSPEMTLVLHLAWVACGYIIWQNSTEDTWYKMVKIQTVKQVQRNDDFIELDYTILLHNIASQEIIPWQMQVLWHPQYGTKVKHNSRLPKEVQLE,not soluble
7,MIRIAYVSTYPPRRCGLATFTEHLRQSIDGVRGPSDGDRVIVLYNESDGDDAYRNDPAYWPLPAQNRAAYAEMAKRVNESDIDVVLLQHEFGIFGGEAGEYILDFIAALNKPLVTTFHTVFADPPLPYRPIQGKIAAASDAIIVMNRQAIPYLVKAFGLPEEKIVYIPHGAPGPSSENRDSLRRRLGFSGRKVMLTFGLLSRGKGIESVLAALPGVVRKVPEALYVIAGQTHPEVKKREGEAYREELKSLIHRLGLEHHVHMEDRYFSEEELIDYLTACDLYVTPYPGMQQITSGTLAYAVGVGRPVVSTPYEHARDLLRGCEELLLPYGDTTAWEERLGQLLADEAALKRWEEKVRQIGANTHWPRVGEQHVALFARMCAAKRGEVKTIGTVSH,not soluble
8,MGSPAHRPALLLLLPPLLLLLLLRVPPSRSFPGSGDSPLEDDEVGYSHPRYKDTPWCSPIKVKYGDVYCRAPQGGYYKTALGTRCDIRCQKGYELHGSSLLICQSNKRWSDKVICKQKRCPTLAMPANGGFKCVDGAYFNSRCEYYCSPGYTLKGERTVTCMDNKAWSGRPASCVDMEPPRIKCPSVKERIAEPNKLTVRVSWETPEGRDTADGILTDVILKGLPPGSNFPEGDHKIQYTVYDRAENKGTCKFRVKVRVKRCGKLNAPENGYMKCSSDGDNYGATCEFSCIGGYELQGSPARVCQSNLAWSGTEPTCAAMNVNVGVRTAAALLDQFYEKRRLLIVSTPTARNLLYRLQLGMLQQAQCGLDLRHITVVELVGVFPTLIGRIGAKIMPPALALQLRLLLRIPLYSFSMVLVDKHGMDKERYVSLVMPVALFNLIDTFPLRKEEMVLQAEMSQTCNT,soluble
9,GSIGLEAEIETTTDETDDGTNTVSHILNVLKDATPIEDVFSFNYPEGIEGPDIKYKKEHVKYTYGPTFLLQFKDKLNVKADAEWVQSTASKIVIPPGMGR,soluble
10,GPGSMPNPLVRLGKELKEATEHPDPDIHLELYDPTKGSDGSRSSQGAALQPSQQQPGLYTWLAILKGPPDTPFAGGSYRLVLSIPHEYPLVPPKAAFITKVFHPNVEFNTGNVCLDILKKRWSPVWTLSSVCRAILNLLAEPESDSPFNCDAGNLLRAGDMEGYASLVRYYAITDAGAPPFADNEE,not soluble
11,MGSDKIHHHHHHMRVAIDAFNIALAHGTGVATYGRTLASAAAGLGHEVNVLFGAGAGYSKVPLLNEIALAEVGAVSARGPSRAALARGIARGLAGARPAHDLPISGQVILPPGLRLDARRHSNVPNLFKAADLGFRAAGAFSKVKVPGTDLAHWTYPLPLKMVGARNVYTLHDLVPLRLPYTTADVKHAYYRLCRRIARDADHILTVSECSRRDIVRLLGVDEDRVTNLYQTSDIADAIAGVSEDFVARYVEGLLGVGMREYFLFFGAIEPKKNVARLIEAFLASAVQSPLVIVGGAGWGGEQDVKLLKSLAGMDTRKRIVWLGYLPRQMLAMLIAGARATVFPSLYEGFGLPVLESMELGTPVITSNVSSLPEVAQDAGLLVDPYDVRSLATAFLQLDADPGLRSQMSMRGREVAAGFSAEAYRGRLADFYAKF,not soluble
12,MGGSVAAQDEFYRSGWALNMKELKLLQTIGKGEFGDVMLGDYRGNKVAVKCIKNDATAQAFLAEASVMTQLRHSNLVQLLGVIVEEKGGLYIVTEYMAKGSLVDYLRSRGRSVLGGDCLLKFSLDVCEAMEYLEGNNFVHRDLAARNVLVSEDNVAKVSDFGLTKEASSTQDTGKLPVKWTAPEALREKKFSTKSDVWSFGILLWEIYSFGRVPYPRIPLKDVVPRVEKGYKMDAPDGCPPAVYEVMKNCWHLDAAMRPSFLQLREQLEHIKTHELHL,soluble
13,AFTGKFEMESEKNYDEFMKLLGISSDVIEKARNFKIVTEVQQDGQDFTWSQHYSGGHTMTNKFTVGKESNIQTMGGKTFKATVQMEGGKLVVNFPNYHQTSEIVGDKLVEVSTIGGVTYERVSKRLA,soluble

# Reference: the DeepSol protein solubility set
